Drawing on doi:10.1101/2022.09.03.506457v1, this text covers Km for 1 protein.

Substrate in the data set: O=C(O)C[C@H](O)C(=O)O
As to the kind of experiment: purified protein. The conditions noted are these: pH 7.2, 50 mM Tris-HCl, 70 °C. Type of data set: biochemical, Methanocaldococcus jannaschii.

A word on the Km: it is the substrate concentration at which the rate is half of its maximum.

B1: MjFH (MjFHαβ), holo, Fe-S reconstituted (Methanocaldococcus jannaschii DSM 2661) (protein)
chain 1: MKISDVVVELFREAAIYLPEDVKNALEEAYKKESSEISKNTLKAIIENNKIAEETQVPLCQDTGVPIVFLKIGKNINSSEIMKIIEEIKEGVKKATEEVPLRPNVVHPLTRENFKTNVGLNSPFINIEFDESLDREIEIIAFPKGAGSENMSALKMLKPSDGIEGIKNFVLETIANAGGKPCPPIVVGIGIGGTADVALKLAKKALLRKIGERHRDKEIANLEKELLEKINSLGIGAMGLGGDITALDVFIEIAGCHTASLPVGICIQCWADRRAIKRIKLDAKL
chain 2: MEYTFNKLTKKDVKKLKVGDIVYLNGKIYTARDEAHLKIIEMLKSNEKLPFDLNESIIYHAGPIMKKVNDSWVCVSIGPTTSARMNDVEEEFIKLTNISAIVGKGGMKKELLKTFEDYGVVYLAAPGGCAALLANSVKRVDNVYFLDELGMPEAVWELEVNNFGPLIVAMDSHGNSIYEEVNKKVYEKLNELIGL
In the case of B1, the Km was determined as 1554 ± 169 µM.
